{"source": "paper PMC4585913", "about": "“Crystal structure of Streptococcus pneumoniae pneumolysin provides key insights into early steps of pore formation” (Scientific Reports, 2015)", "target": "PLY R208A (Streptococcus pneumoniae) (UniProt P0C2J9)"}
{"substance": "PLY R208A (from UniProt P0C2J9 2-470) (natural protein)", "values": [{"measurement": "cytolytic activity on human red blood cells, percent of native PLY activity (% native PLY activity)", "value": 2.5}]}
